The record followed here is patent US8318640B2, “Methods for selective targeting” (Danisco US Inc., priority 2000, dated 2012).

Square brackets hold non-standard residues; d marks the D form. Ends that are not written are not given here. 14C‑Gly = 14C-labelled glycine Some results are limits rather than exact numbers.

Series [1] concerns the target T1, (h) TNF-α (Homo sapiens, UniProt P01375). In words: Selective targeting of a phage-displayed 7-mer library on TNF-α, PCR identification of bound clones. It is filed as binding. Details: purchased BioSource International; Camarillo, Calif. The settings on record: number of multiple times this amino acid sequence occurred out of 24 clones sequenced; binds TNF-alpha and not SuperBlock. As for the experimental part: A thin-walled PCR tube was coated with the target human (h) TNF-α (BioSource International; Camarillo, Calif.) by incubating 100 μl of 0.5 mg/ml purified TNF-α in PBS overnight at 4° C. in the PCR tube. Excess unbound TNF-α was removed, and the tube was coated overnight at 4° C. with 100 μl of SuperBlock™ blocking buffer (Pierce: Rockford, Ill.) in Tris buffered saline (TBS). The anti-target (SuperBlock™ blocking buffer) was prepared in separate PCR tubes coated overnight at 4° C. with 100 μl of SuperBlock™.
Unbound phage were removed by washing the tube 5 times with 150 μl PBS containing 0.1% Tween-20 at room temperature. Low affinity binders were washed away by incubating with 60 μl of 0.2 M Glycine (pH 2.2) for 6 minutes followed by neutralization with 9 μl 1 M Tris-Cl (pH 9.1). The acid washed population was retained for further analysis. The tube was then washed again 3 times with 150 μl of PBS.
To the remaining phage-peptides bound to the TNF-α, 54 μl of Lysis Buffer A (10 mM Tris-Cl, pH 8.4, 0.1% Triton-X100) and an AmpliWax™ PCR gem (Perkin Elmer, Norwalk, USA.) was added. The tube was heated at 95° C. for 15 min and then allowed to cool. The following PCR reagents were then added:
PCR amplification was performed using 20 cycles of denaturation at 94° C. for 15 sec, annealing at 55° C. for 20 sec, and extension at 72° C. for 30 sec. The sequences of the primers (synthesized by GIBCO BRL) were: […]
The PCR product (267 base pairs (bp)) was analyzed on an 8% polyacrylamide gel along with the PCR product from a single phage peptide clone (positive control) and molecular weight markers (FIG. 2). […] This was due to too much template (i.e. phage) in the PCR reaction, and can be alleviated by decreasing the phage concentration or by decreasing the number of PCR cycles (FIG. 3). To decrease the amount of the 500-700 bp diffuse band, the PCR product was diluted appropriately for subsequent PCR reactions from this starting material to generate more products for sub-cloning purposes. Once the desired product (267 bp) was amplified, it was digested with Eagl and Acc651 restriction endonucleases to produce a 45 bp fragment containing the DNA coding for the random peptide. The 45 bp fragment was then sub-cloned into the M13KE vector (New England Biolabs; Beverly, Mass.) at the EagI and Acc65I restriction sites using standard techniques (Sambrook, et al., (1989) supra). After ligating the 45 bp fragment into the M13KE vector, the ligation reaction was transformed into chemically competent ER2537 E. coli cells. The cells were made competent with calcium chloride using a standard protocol (Sambrook, et al., (1989) supra). The M13 DNA was isolated from various transformants using a modified protocol from New England Biolab's protocol for M13 DNA preparation and then sequenced. The modification includes the use of 96-well plates as opposed to tubes.

The nature of series [2]: ELISA of biotinylated peptide binding to skin. Set-up: species or system human. The settings on record: 200 μM biotinylated peptide in 2% body wash; FIG. 9. The source says:
(§1) Peptide sequences identified in Examples 13 and 14 along with a random control peptide were C-terminally labeled with the sequence GGGK (biotin). The sequence LESTPKMK (SEQ ID NO: 115) contains the consensus sequence LEST and was isolated on hair. FTQSLPR (SEQ ID NO: 116) contains the consensus sequence TQSL and was isolated on skin. YGGFMTSE (SEQ ID NO: 117) is a control peptide.
(§2) Dark brown hair (3″ long, 4 each), moistened with 2% body wash and pre-equilibrated human skin tissues, were placed in the wells of a 24 well plate. 1 ml of a 200 μM solution of the biotinylated peptide in 2% Neutrogena body wash was added to the hair and skin samples and incubated 30 min at room temperature with gentle agitation. The solution was then pipetted off and the hair and skin samples transferred with clean tweezers to a 50 ml conical tube, washed once with 50 ml of 2% body wash, twice with 50 ml of water, and once with 50 ml of PBS; each wash step took 5 min and was performed on a rotary shaker at 20 rpm. The hair and skin samples were then transferred with clean tweezers to a fresh 24 well plate where 1 ml of streptavidin conjugated horseradish peroxidase (diluted 1/1000 in PBS) was added for 1 hr at room temperature under gentle rocking. Excess streptavidin HRP was removed by washing twice with 50 ml of PBS (5 min, 20 rpm each) in a 50 mL conical tube. […]
Background: An ELISA detects its analyte on a solid surface through an enzyme-linked reagent.

Series [3] can be described thus: Ni-chelated peptide binding to collar soil on cotton or cotton alone, OPD/H2O2 absorbance assay. How it is done: A phage peptide sequence HTFQHQWTHQTR, (SEQ ID NO: 27) that binds to collar soil on cotton was identified after five rounds of biopanning as described in example 5 except that phage peptides were eluted by acid after each round using the methods described in Scott and Smith (1990) Science 249:386. The selectivity (stain vs. cotton binding) and affinity (koff) were measured for the corresponding peptide binding to collar soil as follows: A 1 mM solution of Ni chelated GGHTFQHQWTHQTR (SEQ ID NO: 28) was incubated with collar soil on cotton or cotton alone for 90 minutes at room temperature with shaking in a microtiter plate. A control peptide chelate Ni GGH was also tested under the same conditions. After pipeting off the incubation solution from the well, fabric swatches were rinsed in 200 μL water with shaking for 3 minutes. The residual bound peptide was assayed by adding 200 μL o-phenylenediamine (OPD) and 50 μL of 100 mM H2O2 and measuring the absorbance of the oxidized OPD at 420 nm. As summarized in Table 5 and FIG. 7, the selectivity ratio of stain binding to fabric is less than or equal to ≦3:1 and the affinity as measured by koff=1×10^−3 sec^−1.

A short description of series [4]: Release of 14C-labeled peptide from collar soil on polyester cotton in Tide detergent, scintillation counting. The class given is binding. How it is done: Soiled shirt collars (65% polyester: 35% cotton) containing the target (collar soil) and anti-target along with the control anti-target (unstained polyester:cotton from the same shirt) were cut to a diameter of 7/32″ and placed into a 96-well microtiter plate (Millipore Corp., […] Durapore membrane; Cat. No. MAGV N22 50). Serial dilutions of a 400 μM stock solution of a soil targeting peptide SISSTPRSYHWT (SEQ ID NO: 20) and a peptide control NFFPTWILPEHT (SEQ ID NO: 78) both terminally labelled with ^14C-glycine were added to 1 g/L Tide detergent solutions (Procter and Gamble, Cincinnati, Ohio) and 60 μL aliquots were placed into the wells of the microtiter plate. The plate was incubated with shaking for 30 minutes at 32° C. followed by suction filtering of excess unbound radiolabeled peptide (Vacuum manifold; Millipore Corp. Cat. No. MAVM 096 OR). The samples were rinsed three times with 200 μL of distilled water, with shaking in between rinses, over a period of about 40 minutes. The remaining radioactivity bound to the samples was quantitated by liquid scintillation counting in a Wallac microbeta counter. […] This corresponds to a rate constant for release of the soil targeting peptide koff≦2×10^−4 sec^−1.

Series [5] can be described thus: ELISA of biotinylated peptide binding to hair. Details: species or system human. The settings on record: 200 μM biotinylated peptide in 2% body wash; FIG. 9.
Text: as §1, §2

For series [6], the target named is T1, (h) TNF-α. As to the kind of experiment: IAsys biosensor binding and dissociation of phage clone on immobilized TNF-α. As for the experimental part: The binding and dissociation of phage clone A1, amino acid sequence: RYWQDIP; Table 1, (SEQ ID NO: 3) to TNF-α was monitored using an IAsys AutoPlus Biosensor following the Labsystems Affinity Sensors IAsys Protocol 2.4 ‘Immobilization to Protein Layer: Thiol coupling to avidin’ (Thermo BioAnalysis Corp. Franklin, Mass.). Two cuvettes were first coated with avidin and one (the control) was then blocked with biotin. This was followed by activation of the lysine groups. A 15 μl aliquot of a 1 mg/ml (h) TNF-α solution was added to each cuvette. […] After blocking and washing, phage clone A1, RYWQDIP (SEQ ID NO: 3) was added to give a final titer of 5×10^11 pfu/ml.
The dissociation of the phage from the TNF-α is very slow with the dissociation constant estimated as koff<10^−4 sec^−1 (10 mM HEPES/0.05% Tween). Washing with a 10× buffer concentrate (at the 70 min time point) only removed a small portion of the phage.

T1 sequence (P01375 77-233 limits assumed): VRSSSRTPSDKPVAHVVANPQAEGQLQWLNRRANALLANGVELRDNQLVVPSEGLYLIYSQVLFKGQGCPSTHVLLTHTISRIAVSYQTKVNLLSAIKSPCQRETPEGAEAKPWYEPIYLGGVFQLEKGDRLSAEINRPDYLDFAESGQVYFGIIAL

The substance “APEPILA (peptides screened from a phage display random peptide library) [Clone T2]” yielded a Frequency in series [1] of 7.

In the case of “ASTVGGL (peptides screened from a phage display random peptide library) [Clone T6]”, the Frequency in series [1] is on record as 2.

In series [1], “ATFPNQS (peptides screened from a phage display random peptide library) [Clone T5]” showed a Frequency of 2.

In series [1], “DMIMVSI (peptides screened from a phage display random peptide library) [Clone T3]” came in with a Frequency of 3.

Regarding “FTQSLPR (peptides screened from a phage display random peptide library)”, the “ELISA binding to skin versus hair” value in series [2] is “selectively targets skin and not hair”.

In turn, “GGHTFQHQWTHQTR (peptides screened from a phage display random peptide library)” registered a koff in series [3] (Ni-chelated peptide, dissociation from collar soil and the corresponding cotton fabric) of 0.001 s⁻¹. Moreover, in series [3] (Table 5, Biopanning, 5 rounds of selection), the “Affinity 10^−4 koff (sec^−1)” value was 10 10^−4 sec^−1.

As for GSISSTPRSYHWT ([14C‑Gly]SISSTPRSYHWT), the “Affinity 10^−4 koff (sec^−1)” value in series [4] (Table 5, Selective Targeting (PCR), 1 round of selection) is “≦ 2 10^−4 sec^−1”.

Regarding “LESTPKMK (peptides screened from a phage display random peptide library)”, the “ELISA binding to hair” value in series [5] is “binds to hair”.

For the substance “NFFPTWILPEHT (peptides screened from a phage display random peptide library) [random peptide control, reference compound]”, the “affinity or selectivity for stained fabric” value in series [4] (1 g/L Tide, same assay, FIG. 6B) is listed as “no affinity or selectivity”.

Regarding “RYWQDIP (peptides screened from a phage display random peptide library) [Clone T1]”, the “koff (dissociation of the phage from the TNF-α)” value in series [6] (10 mM HEPES/0.05% Tween) is reported as < 10^−4 sec^−1. In series [6] (IAsys cuvette, final titer 5×10^11 pfu/ml), the “binding of phage to immobilized TNF-α” value is “significant binding”. For the same substance, in series [1], the Frequency came out at 8.

As for “SISSTPRSYHWT (peptides screened from a phage display random peptide library) [Clone C4]”, the “total radiolabel remaining bound to the stained fabric” value in series [4] (1 g/L Tide, after rinsing for 40 minutes) was “greater than 50%”. Besides, the “koff, rate constant for release of the soil targeting peptide” value in series [4] (1 g/L Tide, collar soil on polyester cotton) was ≤ 0.0002 s⁻¹.

Take “TMLPYRP (peptides screened from a phage display random peptide library) [Clone T7]”: the Frequency in series [1] was found to be 2.

“WTPKPTQ (peptides screened from a phage display random peptide library) [Clone T4]” had a Frequency in series [1] of 2.

As usually defined, the koff is the first-order rate constant of dissociation.
